Data: patent publication US20140289906A1, “Compositions Having Dicamba Decarboxylase Activity and Methods of Use” (priority 2013, published 2014)
“Also recorded” adds a separate entry of the source.

Tests used:
[1] = 14C assay: 14CO2 capture from [14C]-carboxyl-labeled dicamba with IPTG-induced recombinant E. coli cells; conditions: for Dicamba Decarboxylase Activity: IPTG-induced recombinant E. coli cells, 14CO2 from [14C]-carboxyl-labeled dicamba; for Enzymatic Detection level: dicamba decarboxylation activity; for decarboxylation activity of dicamba: among the 108 sequences tested, recombinant E. coli cell assay
[2] = 14C assay: 14CO2 capture from [14C]-carboxyl-labeled dicamba with purified protein; assay type: biochemical
[3] = LC-MS/MS detection of 4-chloro-3-methoxy phenol; assay type: biochemical; conditions: purified protein, dicamba
Procedure: The decarboxylated and chloro hydrolyzed product, 4-chloro-3-methoxy phenol (FIG. 1D), is measured using a LC-MS/MS analytical procedure. […] 10 ul is removed from the reaction mixture and mixed with 90 ul pre-chilled methanol followed by centrifugation at 14,000 rpm for 15 min at 4° C. 10 ul of the supernatant is then transferred into 170 ul ddH2O to achieve 5% methanol solution for injection. 50 ul of the prepared sample is injected into a 4000 Q Trap LC-MS/MS system for sample analysis. LC-MS/MS parameters are: Mobile Phase A, 2 mM ammonium acetate in water; Mobile Phase B, 2 mM ammonium acetate in methanol; Column, Aquasil, 100×2.1 mm, 3 μm, C18 column; Flow Rate, 0.6 ml/min. The MS/MS fragment 157/142 which is common to 4-chloro-3-methoxy phenol, 2-chloro-5-methoxy phenol, and 3-chloro-5-methoxy phenol is monitored at a retention time of 2.88 min.

[4] = GC/MS detection of 2,5-dichloro phenol (2,5-DCP); kinetic determination; assay type: biochemical; conditions: purified protein, dicamba
Procedure: The decarboxylated and demethylated product of dicamba, 2,5-dichloro phenol or 2,5-DCP (FIG. 1E) is measured using a GC/MS analytical procedure with either liquid injection after liquid/liquid extraction using toluene as the extraction solvent or gas injection using head space method. The head space sample analysis is carried out on an Agilent GC/MS system with a 6890A GC, a 5973N MSD and a CTC CombiPAL auto-sampler or with a 7890A GC, a 5975C MSD and an Agilent GC Sampler 80 auto-sampler with Phenomenex ZB-MultiResidue-1 column (30 m length, 0.25 mm diameter, 0.25 um film) or equivalent. GC/MS parameters are: GC inlet temperature, 200° C.; Carry gas, helium in constant flow mode (1.2 mL/min); Oven temperature program, 70° C. for 1 min and then ramp to 275° C. at 40° C./min. […] The reaction vial is transferred to a agitator for incubation at 90° C. for 4 min at 500 rpm. With a syringe preheated at 110° C., 1000 uL of head space is injected with sample fill speed at 100 uL/sec. A 2-mm diameter liner is used in sample inlet. The MS data acquisition is done in SIM (selected ion monitoring) mode. The positive ion at M/Z 162 for the molecular ion of 2,-5-DCP is monitored at retention time of 4.06 min. Solvent delay for MS acquisition is set at 3 min. GC/MS parameters for liquid sample analysis are the same as those for head space analysis, except that the volume of liquid injection is 1 uL.

[5] = Dicamba decarboxylation activity of computationally designed protein variants and parents (Tables 4, 5); conditions: for dicamba decarboxylase activity (statement in the description): native proteins and designed variants, assay not specified

B1: 29 (protein, listed as Pseudovibrio sp.)
chain: MAGRRDFLRKSVAAGVGLTAAAQLSAGGAQATVPDTSNIPLITLEEHFTTPELQSKNTSGDKRLFSGGGSRPELLDVGAGRIADMDEAGIDIQVLSTVTPGASKITGAEGVEFTRKFNTWIAEEVIAAYPNRFRAFATLPLSSPEAAADELERSVREYGFVGTMTYGPIDGKFLDHADYAPLLARAEALGVPIYIHPNWPSPTAMQAYYDGLGDDLTSRILSGPGYGWHQEIAVQCLRLIVGGVFDRFPNLQIVVGHMGEGLPFYYWRVGEDLDRIAQKRLQKPVQQYFHDNLWITTSAFFRDELLNLALATMGEDRVMFSVDYPMASAKVGADWLRAADIPLATKEKIGSKNAMKLLGIDKI
Which “Dicamba Decarboxylase Activity” value [1] does the source give for B1 here?
Its value is “No”.

What about the “Enzymatic Detection level” value [1] of the same molecule?
The value was “No”.

B2: 114 (protein)
chain: MAQGKVALEEHFAIPETLQDSAGAVPGDYWKELQHRLLDIQDTRLKLMDAHGIETMILSLNAPAVQAIPDRRKAIEIARRANDVLAEECAKRPDRFLAFAALPLQDPDAATEELQRCVNDLGFVGALVNGFSQEGDGQTPLYYDLPQYRPFWGEVEKLDVPFYLHPRNPLPQDSRIYDGHPWLLGPTWAFAQETAVHALRLMASGLFDEHPRLNIILGHMGEGLPYMMWRIDHRVAWVKLPPRYPAKRRFMDYFNENFHITTSGNFRTQTLIDAILEIGADRILFSTDWPFENIDHASDWFNATSIAEADRVKIGRTNARRLFKLDGA
modifications: Dicamba decarboxylase variant clone DC.4.116
With B2 as the molecule, how does the CO2 product detected [2] read?
Its CO2 product detected is “detected”.

And the “4-chloro-3-methoxy phenol product detected” value [3]?
Its value is “detected”.

What about the “2,5-DCP product detected” value [4] of the same molecule?
Its value is “detected”.

And the “dicamba decarboxylase activity (statement in the description)” value [5]?
The value was “displays an increase in dicamba decarboxylase activity”.

What about the “Enzymatic Detection level” value [1] of the same molecule?
Its value is “High”.

B3: 124 (protein)
chain: MAQGKVALEEHFAIPETLQDSAGFVPGDYWKELQHRLLDIQDTRLKLMDAHGIETMILSLAAPAVQAIPDRRKAIEIARRANDFLAEECAKRPDRFLAFAALPLQDPDAATEELQRCVNDLGFVGALVNGFSQEGDGQTPLYYDLPQYRPFWGEVEKLDVPFYLHPRNPLPQDSRIYDGHPWLLGPTWAFAQETAVHALRLMASGLFDEHPQLNIILGHMGEGLPYMMWRIDHRVAWGKLPPAYPAKRRFMDYFNENFHITTSGNFRTQTLIDAILEIGADRILFSTDWPFENIDHASDWFNATSIAEADRVKIGRTNARRLFKLDGD
modifications: Dicamba decarboxylase variant clone S03969214
With B3 as the molecule, how does the “Enzymatic Detection level” value [1] read?
The value was “High”.

B4: 125 (protein)
chain: MAQGKVALEEHFAIPETLQDSAGFVPGDYWKELQHRLLDIQDTRLKLMDAHGIETMILSLAAPAVQAIPDRRKAIEIARRANDFLAEECAKRPDRFLAFAALPLQDPDAATEELQRCVNDLGFVGALVNGFSQEGDGQTPLYYDLPQYRPFWGEVEKLDVPFYLHPRNPLPQDSRIYDGHPWLLGPTWAFAQETAVHALRLMASGLFDEHPRLQIILGHMGEGLPYMMYRIDHRIAWVHEPPRYPAKRRFMDYFNENFHITTSGNFRTQTLIDAILEIGADRILFSTDWPFENIDHASDWFNATSIAEADRVKIGRTNARRLFKLDGA
modifications: Dicamba decarboxylase variant clone S03970523
With B4 as the molecule, how does the “Enzymatic Detection level” value [1] read?
Its value is “High”.

B5: 32 (protein)
chain: MARIIAIEEHFLDLDIARASRPEAERLSPAFAAAYGAGQGYNYSPAPEVLLDLEEGRVADMDAHGISMQVLSSLSTQQLPADVAVELVRKVNDRAAAAVAARPDRFAAFAALPTTVPEAAADELDRAVGELGFVGSMINGRTGDAFLDAPRFDAVLRRSAELRVPVYLHPGVPPVETSRSNYEGGLDPIVTARLQTSAWGWHVETGIHFLHLVLAGVFDRYPDLQVILGHWGEMVPFFLERIEEALPQQITHLDRPVGAYFRENAHITPSGMFSQAQLQFCVETVGIERIMFSVDYPFLGNDGAEAFLRQANLPPLATEKIAHLNAERLLALPS
modifications: Streptomyces violaceusniger
Which CO2 product detected [2] does the source give for B5 here?
The CO2 product detected was “detected”.

And the “4-chloro-3-methoxy phenol product detected” value [3]?
The value was “detected”.

What about the “2,5-DCP product detected” value [4] of the same molecule?
The value was “detected”.

What about the “Dicamba Decarboxylase Activity” value [1] of the same molecule?
Its value is “High”.

And the “decarboxylation activity of dicamba” value [1]?
Its value is “showed decarboxylation activity of dicamba”.

And the “Enzymatic Detection level” value [1]?
Its value is “High”.

B6: 108 (protein, listed as Staphylococcus aureus)
chain: MAKSITFEEHYVIEDIQKETMNAISADPKGVPMKVMLEGLEKKTGFTNADELSHHDERIQFMNNQDVQIQVLSYGNGSPSNLVGQKAIELCQKANDQLANYIAQYPNRFVGFATLPINEPEAAAREFERCINDLGFKGALIMGRAQDGFLDQDKYDIIFKTAENLDVPIYLHPAPVNSDIYQSYYKGNYPEVTAATFACFGYGWHIDVGIHAIHLVLSGIFDRYPKLNMIIGHWGEFIPFFLERMDEALFAEHLNHSVSYYFKNSFYITPSGMLTKPQFDLVKKEVGIDRILYAADYPYIEPEKLGVFLDELGLTDEEKEKISYTNGAKLLGLSSNN
Which CO2 product detected [2] does the source give for B6 here?
Its CO2 product detected is “detected”.

And the “4-chloro-3-methoxy phenol product detected” value [3]?
The value was “detected”.

What about the “2,5-DCP product detected” value [4] of the same molecule?
The value was “detected”.

And the “Dicamba Decarboxylase Activity” value [1]?
Its value is “High”.

What about the “decarboxylation activity of dicamba” value [1] of the same molecule?
Its value is “showed decarboxylation activity of dicamba”.

And the “Enzymatic Detection level” value [1]?
Its value is “High”.

B7: 100 (protein, listed as Reinekea blandensis)
chain: MAIIDCHGHYTTTPKGVEDYRNAQKAAVAKDPSFKGEKGQVVVSDDEIRESIENNQLKMQRERGTDLTIFSPRASWMGHHIGNEYTSQFWTEHQNDLIRRVCDLFPKNFAPVAQLPQSPGVDPAKSVPEIVRTVEQMGFIGINLNPDPSGGYWKDTSLADRAFYPIYEKMVEYDIPAMIHVSAACNDCFHTTGSHYLGADTTGFQQLIMSDVFKDFPSLKIIIPHGGGAVPYHWGRFRGLMQDQGYAPLEESALKNIYFDTCVYHQRGIDLLLDIVPTQNILFASEMIGAVRGIDPETGHNFDDTKRYIDNNTALNAEEKAMIFEGNARRVFSRLKTD
Which “dicamba decarboxylase activity (statement in the description)” value [5] does the source give for B7 here?
Its value is “Neither of the native proteins have dicamba decarboxylase activity”.

And the “Dicamba Decarboxylase Activity” value [1]?
The value was “No”.

What about the “Enzymatic Detection level” value [1] of the same molecule?
The value was “No”.

B8: 41 (protein, listed as Polaromonas sp.)
chain: MANGKIALEEHFATEETLMDSAGFVPDKDWPELRSRLLDIQDRRVRLMDEHGIETMILSLNAPAVQAIADSTRANETARRANDFLAEQVAKQPTRFRGFAALPMQDPELAARELERCVKELGFVGALVNGFSQDNRSAVPLYYDMAQYWPFWETVQALDVPFYLHPRNPLPSDARIYDGHAWLLGPTWAFGQETAVHALRLMGSGLFDKYPALKIILGHMGEGLPYSMWRIDHRNAWIKTTPKYPAKRKIVDYFNENFYLTTSGNFRTQTLIDAILEIGADRILFSTDWPFENIDHAADWFENTSISEADRKKIGWGNAQNLFKLNR
With B8 as the molecule, how does the CO2 product detected [2] read?
The CO2 product detected was “detected”.

And the “4-chloro-3-methoxy phenol product detected” value [3]?
Its value is “detected”.

And the “2,5-DCP product detected” value [4]?
Its value is “detected”.

And the “dicamba decarboxylase activity (statement in the description)” value [5]?
Its value is “natural activity; also recorded: native dicamba decarboxylase activity”.

And the “Percent Activity Improvement Over Parent (%)” value ([5]; parent (SEQ ID NO: 1 or SEQ ID NO: 41) = 100)?
Its value is 100%.

What about the “Dicamba Decarboxylase Activity” value [1] of the same molecule?
Its value is “High”.

And the “decarboxylation activity of dicamba” value [1]?
Its value is “showed decarboxylation activity of dicamba”.

What about the “Enzymatic Detection level” value [1] of the same molecule?
Its value is “High”.

B9: 95 (protein, listed as Pseudomonas fluorescens)
chain: MAKKPRIDMHSHFFPRISEQEAAKFDANHAPWLQVSAKGDTGSIMMGKNNFRPVYQALWDPAFRIEEMDAQGVDVQVTCATPVMFGYTWEANKAAQWAERMNDFALEFAAHNPQRIKVLAQVPLQDLDLACKEASRAVAAGHLGIQIGNHLGDKDLDDATLEAFLTHCANEDIPILVHPWDMMGGQRMKKWMLPWLVAMPAETQLAILSLILSGAFERIPKSLKICFGHGGGSFAFLLGRVDNAWRHRDIVREDCPRPPSEYVDRFFVDSAVFNPGALELLVSVMGEDRVMLGSDYPFPLGEQKIGGLVLSSNLGESAKDKIISGNASKFFNINV
With B9 as the molecule, how does the “dicamba decarboxylase activity (statement in the description)” value [5] read?
The value was “not active for dicamba decarboxylation; also recorded: Neither of the native proteins have dicamba decarboxylase activity”.

And the “Dicamba Decarboxylase Activity” value [1]?
Its value is “No”.

And the “Enzymatic Detection level” value [1]?
The value was “No”.
